Results from article PMC10163345 (2023).
Where no end group is shown, it is not given here.

Target: constitutively active truncated His-tagged WT calcineurin (6×His–CNAαWT:CNB) (Homo sapiens (Human),Homo sapiens …, UniProt Q08209,P63098)
Experiment: His-tag pulldown + immunoblot

Chain of constitutively active truncated His-tagged WT calcineurin (6×His–CNAαWT:CNB) (Q08209 1-392, one chain of several): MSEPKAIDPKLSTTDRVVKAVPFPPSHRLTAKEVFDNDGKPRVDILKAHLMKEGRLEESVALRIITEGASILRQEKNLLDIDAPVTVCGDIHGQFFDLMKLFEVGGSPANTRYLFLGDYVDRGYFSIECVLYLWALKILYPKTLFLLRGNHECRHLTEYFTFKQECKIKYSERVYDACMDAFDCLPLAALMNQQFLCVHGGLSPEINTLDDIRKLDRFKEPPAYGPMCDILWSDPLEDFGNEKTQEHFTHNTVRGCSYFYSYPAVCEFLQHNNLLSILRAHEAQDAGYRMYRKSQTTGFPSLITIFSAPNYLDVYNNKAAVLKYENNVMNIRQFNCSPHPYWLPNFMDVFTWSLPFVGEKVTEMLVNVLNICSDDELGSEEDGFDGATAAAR

KGELVPDVRISTIHDI (protein, also: GST-tagged fusion) [GST-tagged POC5 PxIxIT peptide (POC5 PDVRIS)]
binding result: binds
